The source of these data is patent US20200164029A1 (ACCELERON PHARMA, published 2020).

As usually defined, the IC50 is the concentration at which inhibition is half-maximal. Higher therefore signals lower potency.

In one assay the target is T1, human BMP-10 (human, UniProt O95393 317-424).
T1 construct: also called hBMP-10
T1 sequence (looked up): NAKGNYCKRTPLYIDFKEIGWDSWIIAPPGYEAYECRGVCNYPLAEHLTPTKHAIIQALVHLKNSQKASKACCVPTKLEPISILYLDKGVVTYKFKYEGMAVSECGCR
Put plainly: SPR competition: hENG(26-586) 0-50 nM premixed with 10 nM BMP-10, binding to captured ALK1. An excerpt: (§1) BMP-9 and BMP-10 are high-affinity ligands at the type I receptor ALK1 (activin receptor-like kinase 1). […] Similar results were obtained with BMP-10 (FIG. 21).

For assay [1], the target named is T2, human BMP-9 (human, UniProt Q9UK05 320-429).
T2 construct: also called hBMP-9
T2 sequence (looked up): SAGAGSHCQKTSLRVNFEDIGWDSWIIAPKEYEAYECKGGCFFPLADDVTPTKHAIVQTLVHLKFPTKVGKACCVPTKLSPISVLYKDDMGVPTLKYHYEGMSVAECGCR
The assay can be described thus: SPR competition: hENG(26-586) 0-50 nM premixed with 10 nM BMP-9, binding to captured ALK1.
Source text: as §1

The target of assay [2] is T2, human BMP-9. The assay can be described thus: SPR competition: hENG(26-586) premixed with BMP-9, binding to captured ALK1-hFc.
Source text: as §1

The next assay deals with T3, VEGF (human, UniProt P15692-4 27-191, limits assumed).
T3 construct: also called vascular endothelial growth factor
T3 sequence (P15692 other isoform, or with tags, fused parts or gaps limits assumed): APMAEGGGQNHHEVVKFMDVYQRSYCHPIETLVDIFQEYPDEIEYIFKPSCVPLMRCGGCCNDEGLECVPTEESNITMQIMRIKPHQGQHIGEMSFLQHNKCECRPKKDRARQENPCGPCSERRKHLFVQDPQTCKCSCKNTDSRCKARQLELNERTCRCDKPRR
The assay can be described thus: SPR.

Another assay concerns the target T4, human TGF-β2 (human, UniProt P61812 303-414).
T4 construct: also called hTGF-β2
T4 sequence (looked up): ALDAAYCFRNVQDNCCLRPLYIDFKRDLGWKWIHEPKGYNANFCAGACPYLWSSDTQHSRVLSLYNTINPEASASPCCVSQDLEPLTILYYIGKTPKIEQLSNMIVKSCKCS
The assay can be described thus: refers back to Example 3 (SPR).

For the next assay, the target named is T5, human TGF-β1 (human, UniProt P01137 279-390).
T5 construct: also called hTGF-β1
T5 sequence (P01137 279-390 limits assumed): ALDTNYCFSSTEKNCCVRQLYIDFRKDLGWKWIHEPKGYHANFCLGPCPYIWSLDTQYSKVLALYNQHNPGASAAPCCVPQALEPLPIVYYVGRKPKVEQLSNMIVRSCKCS
The assay can be described thus: refers back to Example 3 (SPR).

In a further assay the target is T6, human TGF-β3 (human, UniProt P10600 301-412).
T6 construct: also called hTGF-β3
T6 sequence (looked up): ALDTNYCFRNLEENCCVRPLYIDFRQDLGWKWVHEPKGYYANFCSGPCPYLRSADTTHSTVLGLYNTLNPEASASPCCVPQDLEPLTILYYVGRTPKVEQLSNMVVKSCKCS
The assay can be described thus: refers back to Example 3 (SPR).

B1: hENG(26-586) (R&D Systems, catalog #1097-EN) (receptor)
chain: ETVHCDLQPVGPERGEVTYTTSQVSKGCVAQAPNAILEVHVLFLEFPTGPSQLELTLQASKQNGTWPREVLLVLSVNSSVFLHLQALGIPLHLAYNSSLVTFQEPPGVNTTELPSFPKTQILEWAAERGPITSAAELNDPQSILLRLGQAQGSLSFCMLEASQDMGRTLEWRPRTPALVRGCHLEGVAGHKEAHILRVLPGHSAGPRTVTVKVELSCAPGDLDAVLILQGPPYVSWLIDANHNMQIWTTGEYSFKIFPEKNIRGFKLPDTPQGLLGEARMLNASIVASFVELPLASIVSLHASSCGGRLQTSPAPIQTTPPKDTCSPELLMSLIQTKCADDAMTLVLKKELVAHLKCTITGLTFWDPSCEAEDRGDKFVLRSAYSSCGMQVSASMISNEAVVNILSSSSPQRKKVHCLNMDSLSFQLGLYLSPHFLQASNTIEPGQQSFVQVRVSPSVSEFLLQLDSCHLDLGPEGGTVELIQGRAAKGNCVSLLSPSPEGDPRFSFLLHFYTVPIPKTGTLSCTVALRPKTGSQDQEVHRTVFMRLNIISPDLSGCTSKG
notes: also called soluble human ENG extracellular domain
Take B1: the IC50 is 6.3 nM with human BMP-10, 9.7 nM with human BMP-9 [1] and below 10 nM with human BMP-9 [2].

B2: mENG(27-581)-mFc (Fc fusion)
chain: GGERVGCDLQPVDPTRGEVTFTTSQVSEGCVAQAANAVREVHVLFLDFPGMLSHLELTLQASKQNGTETQEVFLVLVSNKNVFVKFQAPEIPLHLAYDSSLVIFQGQPRVNITVLPSLTSRKQILDWAATKGAITSIAALDDPQSIVLQLGQDPKAPFLCLPEAHKDMGATLEWQPRAQTPVQSCRLEGVSGHKEAYILRILPGSEAGPRTVTVMMELSCTSGDAILILHGPPYVSWFIDINHSMQILTTGEYSVKIFPGSKVKGVELPDTPQGLIAEARKLNASIVTSFVELPLVSNVSLRASSCGGVFQTTPAPVVTTPPKDTCSPVLLMSLIQPKCGNQVMTLALNKKHVQTLQCTITGLTFWDSSCQAEDTDDHLVLSSAYSSCGMKVTAHVVSNEVIISFPSGSPPLRKKVQCIDMDSLSFQLGLYLSPHFLQASNTIELGQQAFVQVSVSPLTSEVTVQLDSCHLDLGPEGDMVELIQSRTAKGSCVTLLSPSPEGDPRFSFLLRVYMVPTPTAGTLSCNLALRPSTLSQEVYKTVSMRLNIVSPDLSGKGTGGGEPRVPITQNPCPPLKECPPCAAPDLLGGPSVFIFPPKIKDVLMISLSPMVTCVVVDVSEDDPDVQISWFVNNVEVHTAQTQTHREDYNSTLRVVSALPIQHQDWMSGKEFKCKVNNRALPSPIEKTISKPRGPVRAPQVYVLPPPAEEMTKKEFSLTCMITGFLPAEIAVDWTSNGRTEQNYKNTATVLDSDGSYFMYSKLRVQKSTWERGSLFACSVVHEGLHNHLTTKTISRSLGK
notes: also called mu-Endoglin; soluble murine ENG fusion protein
With B2, the binding result with VEGF, in the assay with human TGF-β2, with human TGF-β1 and in the assay with human TGF-β3 was “no binding” in each case.
